Molecular target: K18 WT tau (tau four-repeat domain), poly-histidine tag intact (human)
Assay: SDS-PAGE and Western blot (SDS-resistant dimers and aggregates); soluble and pellet fractions of IPTG-induced E. coli, 15% Tris-glycine SDS-PAGE, blot with polyclonal anti-human tau A0024

K18 WT tau (tau four-repeat domain), poly-histidine tag intact (domain or fragment)
stoichiometry N: 2

Source: PMC5147519
